This passage reports Km results from paper PMC6642140, “Boosting NAD^+ with a small molecule that activates NAMPT” (Nature Communications, 2019).

Substrate in this data set: Nc1ncnc2c1ncn2[C@@H]1O[C@H](COP(=O)(O)OP(=O)(O)OP(=O)(O)O)[C@@H](O)[C@H]1O
Description: Km from NMN production assay with varied ATP; phosphorylates His247. Type of data set: biochemical, Homo sapiens. As to conditions: Mg2+ phosphorylation at His247.

The Km is the concentration of substrate that gives half-maximal velocity.

B1: NAMPT (nicotinamide phosphoribosyltransferase) (Homo sapiens) (protein)
chain: MNPAAEAEFNILLATDSYKVTHYKQYPPNTSKVYSYFECREKKTENSKLRKVKYEETVFYGLQYILNKYLKGKVVTKEKIQEAKDVYKEHFQDDVFNEKGWNYILEKYDGHLPIEIKAVPEGFVIPRGNVLFTVENTDPECYWLTNWIETILVQSWYPITVATNSREQKKILAKYLLETSGNLDGLEYKLHDFGYRGVSSQETAGIGASAHLVNFKGTDTVAGLALIKKYYGTKDPVPGYSVPAAEHSTITAWGKDHEKDAFEHIVTQFSSVPVSVVSDSYDIYNACEKIWGEDLRHLIVSRSTQAPLIIRPDSGNPLDTVLKVLEILGKKFPVTENSKGYKLLPPYLRVIQGDGVDINTLQEIVEGMKQKMWSIENIAFGSGGGLLQKLTRDLLNCSFKCSYVVTNGLGINVFKDPVADPNKRSKKGRLSLHRTPAGNFVTLEEGKGDLEEYGQDLLHTVFKNGKVTKSYSFDEIRKNAQLNIELEAAHH
notes: recombinant, N-terminal His tag removed with thrombin
On to B1, for which the Km was found to be 1730 ± 320 µM.
